We go through 83 variants from the RNAGym collection of RNA variant scans (doi:10.1073/pnas.2313332121).

B1: TPR 5TU (parent)
chain: GGAUCUUCUCGAUCUAACAAAAAAGACAAAUCUGCCACAAAGCUUGAGAGCAUCUUCGGAUGCAGAGGCGGCAGCCUUCGGUGGCGCGAUAGCGCCAACGUUCUCAACUAUGACACGCAAAACGCGUGCUCCGUUGAAUGGAGUUUAUCAUG

Variants at the floor of the assay were thinned out. Where only a bound is given, the exact number is not on record here.

In this data set the parent is B1. Kind of data set: polymerase ribozyme fitness, log enrichment relative to wild type (log ratio); higher = more active; in vitro selection for triplet polymerase activity. Summed up: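 Genotype fitness is the logarithm of its enrichment divided by wild-type enrichment, using inverse-variance-weighted averages of replicates. That logarithm is base 2. Enrichment was measured by Illumina sequencing of input and output libraries from one triplicate in vitro selection round, with frozen incubation at −7 °C, on PCR-built, transcribed mutant libraries of each subunit of a heterodimeric triplet polymerase ribozyme, retaining genotypes with ≥10 input reads and ≥1 read per output.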
On to C38G G141A, for which the “polymerase ribozyme fitness (log ratio)” value was -0.0444.

For the variant C38U U56A A60U C95A, the “polymerase ribozyme fitness (log ratio)” value is -1.13.

Regarding A37U A52C A73U G86A C96A C108G G133A G141A, the “polymerase ribozyme fitness (log ratio)” value was no more than -4.2.

Consider C38U G86A, for which the “polymerase ribozyme fitness (log ratio)” value is -1.16.

Take C38U G86U: the “polymerase ribozyme fitness (log ratio)” value was -1.57.

For the variant C38A C118U A120C G141A, the “polymerase ribozyme fitness (log ratio)” value was -0.525.

Turning to A39C A40C G70C G88C U109C, the “polymerase ribozyme fitness (log ratio)” value is no more than -4.2.

For C38G U146C, the “polymerase ribozyme fitness (log ratio)” value was -0.518.

With A37U C54A C57A C93U, the “polymerase ribozyme fitness (log ratio)” value was -3.28.

With C38G G80C C99G C116U, the “polymerase ribozyme fitness (log ratio)” value was -0.78.

Regarding C38A C93G C123G, the “polymerase ribozyme fitness (log ratio)” value was -3.67.

On to A37U A40C U55A G58A G59A G84C G126A, for which the “polymerase ribozyme fitness (log ratio)” value is -4.07.

Take A37G C54U U55A G86A A89U U109G A138G: the “polymerase ribozyme fitness (log ratio)” value was no more than -4.2.

In the case of C38G G42C G71C C95A C96A, the “polymerase ribozyme fitness (log ratio)” value was no more than -4.2.

As for A37G G84A U101G A120G, the “polymerase ribozyme fitness (log ratio)” value was -2.6.

For the variant C38G A41G U55A G83A G143A, the “polymerase ribozyme fitness (log ratio)” value was -1.78.

As to A37U C75U G83A A98U, the “polymerase ribozyme fitness (log ratio)” value was -2.88.

Take C38U C69A U82A G94U: the “polymerase ribozyme fitness (log ratio)” value was -3.99.

As to A37U C85A C93U G141C A147C, the “polymerase ribozyme fitness (log ratio)” value is no more than -4.2.

Turning to A37U U77G C96A A106G, the “polymerase ribozyme fitness (log ratio)” value is no more than -4.2.

As for C38U U44A A47U G67C C69U G84A, the “polymerase ribozyme fitness (log ratio)” value is no more than -4.2.

C38U A39C U61G G124C: the “polymerase ribozyme fitness (log ratio)” value is -3.96.

For C38U G62A C96U C129U, the “polymerase ribozyme fitness (log ratio)” value is -0.672.

For the variant C38G C75U C93G, the “polymerase ribozyme fitness (log ratio)” value was -4.16.

For the variant C38U C125A, the “polymerase ribozyme fitness (log ratio)” value is -0.6.

As for C38A U53A A60U C93G C131A G141C, the “polymerase ribozyme fitness (log ratio)” value was -3.94.

Turning to C38A C96G, the “polymerase ribozyme fitness (log ratio)” value was -0.458.

Consider A37U G88U G92C A122G G133U G143A A150U, for which the “polymerase ribozyme fitness (log ratio)” value is -4.06.

Take C38U C96G: the “polymerase ribozyme fitness (log ratio)” value is -1.09.

In the case of C38U A49U U61G G83U G133C A142C, the “polymerase ribozyme fitness (log ratio)” value is no more than -4.2.

With C38U U61G G92U C116G G140A U144C, the “polymerase ribozyme fitness (log ratio)” value was no more than -4.2.

As for A37G C51U C72U C95A A138U G143U, the “polymerase ribozyme fitness (log ratio)” value is no more than -4.2.

Consider A37U C54U C93U, for which the “polymerase ribozyme fitness (log ratio)” value is -2.44.

Turning to C38G C54G C76G A107U U146G, the “polymerase ribozyme fitness (log ratio)” value was no more than -4.2.

C38U U45A G84U C129A A142C: the “polymerase ribozyme fitness (log ratio)” value is no more than -4.2.

Turning to C38G A120U G140C A142C, the “polymerase ribozyme fitness (log ratio)” value was no more than -4.2.

A37U U78G U90C U101G U104G: the “polymerase ribozyme fitness (log ratio)” value was no more than -4.2.

For C38G G133C A147C, the “polymerase ribozyme fitness (log ratio)” value is -2.55.

Consider A37G A60C, for which the “polymerase ribozyme fitness (log ratio)” value is -3.15.

With A39C A41C A115G G124A, the “polymerase ribozyme fitness (log ratio)” value is -3.47.

As for C38A U145C, the “polymerase ribozyme fitness (log ratio)” value was -0.328.

For the variant C38A U56G G136C U146C, the “polymerase ribozyme fitness (log ratio)” value was -3.92.

Turning to C38G C54G U82C U146A, the “polymerase ribozyme fitness (log ratio)” value was -1.88.

For A37G G58C C85A, the “polymerase ribozyme fitness (log ratio)” value was -3.83.

On to C38A G58C C87U, for which the “polymerase ribozyme fitness (log ratio)” value is -0.072.

Consider A37U A115C A119C, for which the “polymerase ribozyme fitness (log ratio)” value is -2.95.

As to A37G A60G G83C C96U G141U, the “polymerase ribozyme fitness (log ratio)” value is -2.58.

C38U G58A U61A U134C: the “polymerase ribozyme fitness (log ratio)” value was -1.57.

Take A37G A39U G50A A142U: the “polymerase ribozyme fitness (log ratio)” value was no more than -4.2.

Turning to C38U A73G G83U A91U A97U A110G, the “polymerase ribozyme fitness (log ratio)” value was no more than -4.2.

Take A37G U55G C85G: the “polymerase ribozyme fitness (log ratio)” value is -3.49.

Take C38A G84A G86C G117U: the “polymerase ribozyme fitness (log ratio)” value is no more than -4.2.

On to C38U G58C C96U A98G, for which the “polymerase ribozyme fitness (log ratio)” value came out at 0.385.

As for A37U A142G G152U, the “polymerase ribozyme fitness (log ratio)” value is -4.13.

With C38U A49C, the “polymerase ribozyme fitness (log ratio)” value is no more than -4.2.

In the case of C38U A60C U61A C76U C87G C93A G136A G141A, the “polymerase ribozyme fitness (log ratio)” value is no more than -4.2.

Take C38U C96G A142U U146A: the “polymerase ribozyme fitness (log ratio)” value was -1.67.

For the variant C38U G81C U111G A138G, the “polymerase ribozyme fitness (log ratio)” value was no more than -4.2.

Regarding A37U C51G G88A, the “polymerase ribozyme fitness (log ratio)” value was no more than -4.2.

Take A37U G58C A97G C132U: the “polymerase ribozyme fitness (log ratio)” value was -2.67.

As to A37G C93U G117A G128A, the “polymerase ribozyme fitness (log ratio)” value was -4.18.

As for A37G U44A A52C G86U C95U U101G U144C, the “polymerase ribozyme fitness (log ratio)” value was no more than -4.2.

A37G A66U C96A C103U: the “polymerase ribozyme fitness (log ratio)” value is no more than -4.2.

Regarding C38G C85U A89C, the “polymerase ribozyme fitness (log ratio)” value was -1.86.

Regarding C38U A66G U82A C96U C125A U145A, the “polymerase ribozyme fitness (log ratio)” value was no more than -4.2.

Consider A37G U45G C57G C95U, for which the “polymerase ribozyme fitness (log ratio)” value was -3.33.

As to C38U C75A G80U, the “polymerase ribozyme fitness (log ratio)” value was -4.14.

Turning to C38G G71A U82G A107U, the “polymerase ribozyme fitness (log ratio)” value is no more than -4.2.

Turning to C38U A60C U77G C87U G94A U101A C105A, the “polymerase ribozyme fitness (log ratio)” value is no more than -4.2.

In the case of C38G A60G C76G G81A G84U U102G C116U G128A, the “polymerase ribozyme fitness (log ratio)” value is no more than -4.2.

On to C38U A49C C85U G92U C103A U111C U144C, for which the “polymerase ribozyme fitness (log ratio)” value is no more than -4.2.

On to A37U C51U G92U, for which the “polymerase ribozyme fitness (log ratio)” value was -2.25.

C38G C85A C116A A120G: the “polymerase ribozyme fitness (log ratio)” value was -2.28.

For A37U U56C C69U, the “polymerase ribozyme fitness (log ratio)” value is -2.76.

Consider A37U A121G G152U, for which the “polymerase ribozyme fitness (log ratio)” value was -3.84.

Regarding C38U G136U, the “polymerase ribozyme fitness (log ratio)” value is -2.3.

In the case of C38G A89C C93A C95G U109C, the “polymerase ribozyme fitness (log ratio)” value was no more than -4.2.

Consider C38A C93A G143U, for which the “polymerase ribozyme fitness (log ratio)” value was -4.12.

Consider A37U A66G C149U G152C, for which the “polymerase ribozyme fitness (log ratio)” value is no more than -4.2.

A37G G50C: the “polymerase ribozyme fitness (log ratio)” value was -3.93.

Turning to C38U C63A C85U, the “polymerase ribozyme fitness (log ratio)” value is 0.65.

As to A37U C95G, the “polymerase ribozyme fitness (log ratio)” value is -3.51.

Consider C38U G83A G100A C129G, for which the “polymerase ribozyme fitness (log ratio)” value was no more than -4.2.
